# Measured values as given in publication PMC5759264.
# Molecular target: Recombinant human His-tagged CEACAM5 extracellular domain (human) (UniProt P06731)
# Assay: BLI
# UniProt P06731, sequence (P06731 35-702): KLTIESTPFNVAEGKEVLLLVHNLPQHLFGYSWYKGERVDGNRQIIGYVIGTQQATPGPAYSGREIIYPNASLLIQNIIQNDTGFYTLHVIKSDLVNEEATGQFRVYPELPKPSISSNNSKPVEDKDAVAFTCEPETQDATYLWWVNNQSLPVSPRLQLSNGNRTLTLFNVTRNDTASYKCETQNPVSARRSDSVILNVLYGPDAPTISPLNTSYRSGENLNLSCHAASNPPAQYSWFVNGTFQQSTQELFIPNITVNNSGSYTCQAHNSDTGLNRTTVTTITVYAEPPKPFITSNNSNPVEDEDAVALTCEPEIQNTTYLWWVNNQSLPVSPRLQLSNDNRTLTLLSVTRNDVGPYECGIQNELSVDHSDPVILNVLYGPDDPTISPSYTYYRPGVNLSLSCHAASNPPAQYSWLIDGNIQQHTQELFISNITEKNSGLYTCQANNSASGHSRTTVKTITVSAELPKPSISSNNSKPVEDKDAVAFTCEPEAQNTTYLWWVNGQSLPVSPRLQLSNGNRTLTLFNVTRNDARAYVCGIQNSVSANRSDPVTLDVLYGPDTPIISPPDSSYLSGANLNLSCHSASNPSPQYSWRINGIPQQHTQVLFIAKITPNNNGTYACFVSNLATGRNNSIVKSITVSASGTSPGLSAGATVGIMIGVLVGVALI
row,Kd,Substance
1,0.6 nM,common light chain IgG variant 4G07 (from UniProt P01624)
2,2.5 nM,common light chain IgG variant 4F02 (from UniProt P01624)
